According to the supplement of paper PMC9732359:
± gives the uncertainty stated by the source.

Test: protein stability index of a GFP-peptide fusion (yeast GPS) (PSI 1-4); higher = more stable; sorted into four equal gates, so the index is relative within each strain
Method in brief: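 Mid-log yeast cultures in leucine-free medium, carrying a pooled plasmid library, were sorted into four equal gates by their GFP/Cherry fluorescence ratio. Each plasmid expressed Cherry along with GFP fused upstream of a tiled 17-residue yeast protein peptide. Plasmids recovered from each gate were PCR-amplified and Illumina-sequenced, with reads assigned to strains by barcodes. The protein stability index was obtained by summing each gate's read frequency weighted by its gate number.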

Sequence | protein stability index (doa10∆) | protein stability index (pdr5∆) | protein stability index (san1∆) | protein stability index (ubr1∆)
YRFFKKISEDPVKALNE [SNF12] | 3.5 ± 0.19 | 3.68 ± 0.2 | 2.8 ± 0.23 | 3.52 ± 0.086
SSLFNNSTNSNTTKPAF [YJL041W/NSP1] | 2.45 ± 0.054 | 2.15 ± 0.049 | 2.61 ± 0.042 | 2.06 ± 0.037
TAVAFWSWDIAVDNCAI [HRT1] | 1.33 ± 0.07 | 1.49 ± 0.067 | 1.52 ± 0.12 | 1.55 ± 0.043
KSDTVTSASQPFKFGKT [YOR098C/NUP1] | 2.34 ± 0.081 | 1.71 ± 0.069 | 1.62 ± 0.12 | 1.97 ± 0.052
FEYVLYPSKTLKTDGVR [FAS2] | 2.42 ± 0.08 | 2.96 ± 0.069 | 2.26 ± 0.099 | 2.75 ± 0.081
INSAPDFTQEDELRKQE [ISW2] | 3.24 ± 0.084 | 3.52 ± 0.068 | 3.4 ± 0.062 | 3.46 ± 0.057
QEGMNECPGHFGHIDLA [RPO21] | 3.27 ± 0.21 | 3.25 ± 0.098 | 3.33 ± 0.074 | 3.29 ± 0.09
SMILEAISTDKINPFGF [RRI2] | 2.85 ± 0.076 | 3.01 ± 0.12 | 2.59 ± 0.12 | 2.92 ± 0.083
SQIIPLMKKACYVGLLT [SNU114] | 1.67 ± 0.049 | 1.82 ± 0.06 | 1.75 ± 0.07 | 1.83 ± 0.043
NERELNVFARLSRLLSL [RPC82] | 2.02 ± 0.16 | 2.07 ± 0.11 | 2.79 ± 0.13 | 2.5 ± 0.06
VVVSGKLRAARAKAMKF [RPS3] | – | – | – | 3.28 ± 0.29
QEAVNSLKGYKIENSVQ [CSI1] | 3.2 ± 0.13 | 3.29 ± 0.079 | 3.32 ± 0.051 | 3.39 ± 0.073
NVFVILMDKCLPKVRIR [DIS3] | 2.96 ± 0.088 | 1.87 ± 0.05 | 1.87 ± 0.07 | 1.65 ± 0.047
LNSNNSIIGNKNNNYTW [REC8] | 2.86 ± 0.14 | 2.76 ± 0.1 | 2.87 ± 0.07 | 2.41 ± 0.072
ETATLIMNELYRMKGGR [SMC3] | 3.07 ± 0.088 | 3.21 ± 0.12 | 2.82 ± 0.1 | 3.26 ± 0.084
LGLKFDDLIAEENPIMQ [QCR7] | 2.46 ± 0.28 | 2.21 ± 0.14 | 2.32 ± 0.16 | 1.81 ± 0.079
SRFSPEKLAVSALEQAI [YGL100W/SEH1] | 2.19 ± 0.098 | 2.36 ± 0.12 | 1.9 ± 0.077 | 2.42 ± 0.13
QGAKTYLERTLDTFIKI [PRE5] | 3.03 ± 0.081 | 3.18 ± 0.068 | 2.81 ± 0.067 | 3.21 ± 0.058
GQCRPISKTVRFNVVKV [RPS11A] | 3.31 ± 0.12 | 2.93 ± 0.22 | 2.76 ± 0.097 | 2.77 ± 0.1
RAVLKSFLESVIRDSVT [HHF1] | 2.62 ± 0.063 | 2.44 ± 0.052 | 1.86 ± 0.063 | 2.12 ± 0.049
ESRSFSPIPFPPLTYKN [PRP8] | 3.04 ± 0.074 | 3 ± 0.08 | 2.6 ± 0.058 | 2.62 ± 0.047
RAASAKIESSVESQFSA [RPS8A] | 3.11 ± 0.09 | 3.31 ± 0.083 | 2.53 ± 0.13 | 3.45 ± 0.14
DELSSKELVECHLYSQR [NNF1] | 2.05 ± 0.056 | 2.33 ± 0.052 | 2.13 ± 0.094 | 2 ± 0.04
EDEDEDDETPSCEVEEI [SNU114] | 3.05 ± 0.051 | 2.22 ± 0.05 | 2.99 ± 0.056 | 2.85 ± 0.044
EYNKPNSEKFVFLLTTR [ISW2] | 3.09 ± 0.19 | 2.58 ± 0.099 | 1.59 ± 0.083 | 2.43 ± 0.12
NGAVGKREGKTRLLNIV [ISW2] | 3.27 ± 0.12 | 2.95 ± 0.11 | 3.03 ± 0.051 | 2.97 ± 0.088
FNNEKETEKFALERNWP [RPN12] | 2.68 ± 0.07 | 2.63 ± 0.055 | 2.76 ± 0.041 | 2.84 ± 0.037

Sequence | protein stability index (doa10∆) | protein stability index (pdr5∆) | protein stability index (san1∆) | protein stability index (ubr1∆)
VNEPTKNEEAEIEVDEM [RPN1] | 3.25 ± 0.17 | 3.22 ± 0.23 | 3.08 ± 0.14 | 3.45 ± 0.16
DLVKPKNPKFSNAFYSV [SMC4] | 2.43 ± 0.062 | 2.42 ± 0.064 | 2.26 ± 0.074 | 2.82 ± 0.067
INVDNDPFFAQSEDLSH [YML103C/NUP188] | 3.15 ± 0.055 | 3.08 ± 0.056 | 3.15 ± 0.044 | 3.05 ± 0.046
ISTYISTDELVGSPLTV [POP8] | 1.49 ± 0.13 | 2.6 ± 0.1 | 2.27 ± 0.16 | 2.2 ± 0.081
EQRKQKLSKILPRYQEL [SMC3] | 3.22 ± 0.12 | 3.1 ± 0.1 | 3.01 ± 0.096 | 3.12 ± 0.1
ALREMRKSDQQDVLKGS [POP1] | 3.36 ± 0.17 | 3.56 ± 0.16 | 3.43 ± 0.14 | 3.22 ± 0.11
KDRLYCGKCHSVYKVNA [RPS31] | 1.49 ± 0.086 | 2.26 ± 0.1 | 1.89 ± 0.14 | 2.01 ± 0.052
GHIAKLMATEYQDIEGG [RPB2] | 3.45 ± 0.29 | – | – | 3.18 ± 0.13
DESDTISFRSNLLKNFI [SNF6] | 2.04 ± 0.084 | 2.55 ± 0.12 | 2.58 ± 0.15 | 2.41 ± 0.079
IFALVFSSNERYFFWLQ [RPN13] | 1.25 ± 0.046 | 1.61 ± 0.07 | 1.65 ± 0.08 | 1.87 ± 0.046
DPVSGAILVPMTVNDQP [YJR042W/NUP85] | 1.95 ± 0.18 | 2.03 ± 0.16 | 2.28 ± 0.087 | 2.4 ± 0.085
GEHEKSNILLNSLTKYP [MED1] | 1.45 ± 0.08 | 1.92 ± 0.076 | 1.14 ± 0.25 | 1.69 ± 0.068
YEDSGSTYKHDRGIANI [SRB4] | 3.29 ± 0.13 | 3.29 ± 0.14 | 3.25 ± 0.097 | 3.36 ± 0.096
STLYKYLKESKRKYDEI [SWI3] | 3.51 ± 0.12 | 3.42 ± 0.24 | 3.21 ± 0.17 | 2.84 ± 0.15
LPAPPVCIRPSVMMQDS [RPO31] | 1.61 ± 0.081 | 2.08 ± 0.1 | 1.93 ± 0.11 | 2.04 ± 0.095
MSLPATFDLTPEDAQLL [RPS0A] | 2.75 ± 0.079 | 2.83 ± 0.12 | 2.47 ± 0.15 | 2.31 ± 0.11
ETALEFLEKEKQLTLLR [SMC4] | 3.46 ± 0.1 | 2.65 ± 0.074 | 2.66 ± 0.12 | 2.92 ± 0.058
KRFQVLYPCYFDINRSH [SEC65] | 2.11 ± 0.062 | 2.11 ± 0.055 | 1.88 ± 0.071 | 2.06 ± 0.039
GNVVMDIGKGAETTFLQ [RPC53] | 3.26 ± 0.2 | – | 3.02 ± 0.22 | 3.29 ± 0.083
RIPFSERKLKFSNRFLP [FAS1] | 1.28 ± 0.084 | 1.17 ± 0.077 | 1.11 ± 0.13 | 1.31 ± 0.084
KNTLLERLKQLTPNEIK [SWP82] | 2.8 ± 0.063 | 2.81 ± 0.065 | 2.71 ± 0.046 | 2.68 ± 0.054
VFEISENNSDSNSNNNG [SWI1] | 2.89 ± 0.15 | 3.03 ± 0.11 | 3.15 ± 0.12 | 3.28 ± 0.15
EGNYRNLNNLKQENAYL [RPB8] | 3.31 ± 0.084 | 3.31 ± 0.085 | 3.27 ± 0.08 | 3.43 ± 0.068
YKVDAEGKVTKLRRECS [RPS31] | 2.68 ± 0.12 | 2.92 ± 0.14 | 2.67 ± 0.12 | 3.22 ± 0.078
KISLLRPSFQNNRISNA [SWP82] | 2.46 ± 0.042 | 2.37 ± 0.046 | 2.23 ± 0.078 | 2.27 ± 0.041
SAISVTNVEDPLAKKQT [SIR2] | – | – | – | 3.2 ± 0.21
